# Source: patent US20150099861A1
# Molecular target: CMV peptide 495-503 (pp65) presented on target cells (CMV) (UniProt P06725)
substance,measurement,value
CD8+ T cells educated against pp65 peptide in the IVE assay (untreated) (cells without a defined receptor),lysis in the chromium release assay,> 50%
